1 molecule from patent publication US20100062980A1 (NATIONAL UNIVERSITY OF SINGAPORE, published 2010) can be followed below.

In test [1] the target is T1, cloned human β-adrenergic receptor subtype 1 (human, UniProt P08588 1-477).
Test [2] deals with T2, cloned human β-adrenergic receptor subtype 2 (human, UniProt P07550 1-413).
Test [3] deals with T1, cloned human β-adrenergic receptor …. Description: radioligand displacement ((-)-[3H]CGP-12177), Ki from IC50 by Cheng-Prusoff.
Test [4] addresses T2, cloned human β-adrenergic receptor …. The description is as above.

T1 sequence (P08588 whole entry): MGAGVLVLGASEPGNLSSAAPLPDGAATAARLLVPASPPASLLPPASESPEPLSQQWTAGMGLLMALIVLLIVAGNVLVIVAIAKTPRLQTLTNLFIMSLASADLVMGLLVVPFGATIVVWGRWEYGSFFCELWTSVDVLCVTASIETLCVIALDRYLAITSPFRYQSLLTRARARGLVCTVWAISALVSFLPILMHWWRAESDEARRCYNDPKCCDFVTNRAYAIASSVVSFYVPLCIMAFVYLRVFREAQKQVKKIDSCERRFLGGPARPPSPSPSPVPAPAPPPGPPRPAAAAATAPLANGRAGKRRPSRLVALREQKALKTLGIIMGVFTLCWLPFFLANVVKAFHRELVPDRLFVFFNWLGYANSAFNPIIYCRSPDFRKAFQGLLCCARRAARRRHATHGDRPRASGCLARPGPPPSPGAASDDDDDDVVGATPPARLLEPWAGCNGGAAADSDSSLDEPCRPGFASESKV

B1: β-cardiotoxin (ligand)
chain: RKCLNTPLPLIYTTCPIGQDKCVKMTIKKLPSKYDVIRGCIDICPKSSADVEVLCCDTNKCNK
notes: also called beta-cardiotoxin; AY354198 protein
With B1, the IC50 in test [1] stood at 10 µM; in test [2], 5 µM. Further, the results for the inhibition constant Ki in test [3] and in test [4] were 5.3 µM and 2.3 µM, respectively.

One may read the IC50 as the concentration needed to halve the response being measured. A lower IC50 goes with greater potency. A word on the Ki: it is the equilibrium dissociation constant of an inhibitor or competing ligand from its target. Higher therefore signals a looser hold on the target.
